Laboratory results published in patent publication US20130149306A1, “Antagonists of Sema3E/PlexinD1 interaction as anti-cancer agents” (NETRIS PHARMA, priority 2010, published 2013).

B1: Sema3E: secreted Semaphorin 3E, ligand of PlexinD1; added as exogenous protein or co-transfected vector (protein)
chain: ANPSYPRLRLSHKELLELNRTSIFQSPLGFLDLHTMLLDEYQERLFVGGRDLVYSLNLERVSDGYREIYWPSTAVKVEECIMKGKDANECANYIRVLHHYNRTHLLTCATGAFDPHCAFIRVGHHSEEPLFHLESHRSERGRGRCPFDPNSSFVSTLVGNELFAGLYSDYWGRDSAIFRSMGKLGHIRTEHDDERLLKEPKFVGSYMIPDNEDRDDNKMYFFFTEKALEAENNAHTIYTRVGRLCVNDMGGQRILVNKWSTFLKARLVCSVPGMNGIDTYFDELEDVFLLPTRDPKNPVIFGLFNTTSNIFRGHAVCVYHMSSIREAFNGPYAHKEGPEYHWSLYEGKVPYPRPGSCASKVNGGKYGTTKDYPDDAIRFARMHPLMYQPIKPVHKKPILVKTDGKYNLRQLAVDRVEAEDGQYDVLFIGTDTGIVLKVITIYNQETEWMEEVILEELQIFKDPAPIISMEISSKRQQLYIGSASAVAQVRFHHCDMYGSACADCCLARDPYCAWDGISCSRYYPTGAHAKRRFRRQDVRHGNAAQQCFGQQFVGDALDRTEERLAYGIESNSTLLECTPRSLQAKVIWFVQKGRDVRKEEVKTDDRVVKMDLGLLFLRVRKSDAGTYFCQTVEHNFVHTVRKITLEVVEEHKVEGMFHKDHEEERHHKMPCPPLSGMSQGTKPWYKEFLQLIGYSNFQRVEEYCEKVWCTDKKRKKLKMSPSKWKYANPQEKRLRSKAEHFRLPRHTLLS
B2: Sema3C: class 3 semaphorin which does not directly bind to PlexinD1; expressed from vector (protein, UniProt Q99985 21-751, looked up)
Semaphorin-3C: GSSQPQARVYLTFDELRETKTSEYFSLSHHPLDYRILLMDEDQDRIYVGSKDHILSLNINNISQEALSVFWPASTIKVEECKMAGKDPTHGCGNFVRVIQTFNRTHLYVCGSGAFSPVCTYLNRGRRSEDQVFMIDSKCESGKGRCSFNPNVNTVSVMINEELFSGMYIDFMGTDAAIFRSLTKRNAVRTDQHNSKWLSEPMFVDAHVIPDGTDPNDAKVYFFFKEKLTDNNRSTKQIHSMIARICPNDTGGLRSLVNKWTTFLKARLVCSVTDEDGPETHFDELEDVFLLETDNPRTTLVYGIFTTSSSVFKGSAVCVYHLSDIQTVFNGPFAHKEGPNHQLISYQGRIPYPRPGTCPGGAFTPNMRTTKEFPDDVVTFIRNHPLMYNSIYPIHKRPLIVRIGTDYKYTKIAVDRVNAADGRYHVLFLGTDRGTVQKVVVLPTNNSVSGELILEELEVFKNHAPITTMKISSKKQQLYVSSNEGVSQVSLHRCHIYGTACADCCLARDPYCAWDGHSCSRFYPTGKRRSRRQDVRHGNPLTQCRGFNLKAYRNAAEIVQYGVKNNTTFLECAPKSPQASIKWLLQKDKDRRKEVKLNERIIATSQGLLIRSVQGSDQGLYHCIATENSFKQTIAKINFKVLDSEMVAVVTDKWSPWTWASSVRALPFHPKDIMGAFSHSEMQMINQYCKDTRQQHQQGDESQKMRGDYGKLKALINSRKSRNRRNQLPES

Columns and labels:
[1] = tested on: HEK 293T cells transfected with hPlexinD1; experiment: PlexinD1-induced cell death of transfected HEK 293T cells; format: cell-based, human; conditions: for Effect of caspase inhibitor on the death effect of PlexinD1: 10 μM, trypan blue exclusion, cleaved Caspase-3 positive cells; for Effect of co-transfected semaphorin vector on PlexinD1-induced cell death: co-transfection with hPlexinD1
Procedure: FIGS. 28-29: HEK 293T cells transfected with an expression control vector or hPlexinD1 were cultured in absence or presence of different caspase inhibitors at 10 μM (caspase-3 (z-DEVD-fmk) and capspase-9 (z-LEHD-fmk), caspase-8 (z-IETD-fmk)). Cell death was measured by trypan blue exclusion-assay (28) or by quantification of the percentage of cleaved Caspase-3 positive cells (29). Activation of caspase-9 and caspase-3 is required for PlexinD1-mediated cell death.
FIG. 30: HEK 293T cells transfected with expression vectors for hPlexinD1, hPlexinD1-RA or a control vector were cultured in the absence or presence of different concentration of Sema3E (10 to 100 ng/ml).
FIG. 31: HEK 293T cells transfected with an expression vector for hPlexinD1 together with expression vector coding for Sema3E, Sema3C or a soluble form of Sema4A.
(§1) Cell death/viability was determined by trypan blue dye exclusion, MTT cell viability assay, calcein assay, and anti-active caspase-3 immunoreactivity. In some experiments, cells were seeded in multiple 24-well plates (5×10^4 cells/well) for 24 h then transfected with different vectors using Lipofectamine Plus (Invitrogen): The different analysis occurred after 48 h (HEK-293T cells) or 72 h (4T1 cells) of serum starvation. In some experiments, cells were cultured in the presence of 10 μM caspase inhibitors: caspase-3 inhibitor II (Z-DEVD-FMK, 264155, VWR), caspase-8 inhibitor II (Z-IETD-FMK, 218759, VWR), and caspase-9 inhibitor II ([…], 218776, VWR).
(§2) For trypan blue exclusion experiments, total cells (adherent and floating) were collected by mechanical detachment and medium collection. Cells were pelleted by slow centrifugation and resuspended in serum-free medium. Trypan blue (0.4%) was added in a ratio of 1:1 to the cell suspension, and the percentage of cell death was measured in a hemacytometer by counting, in a blinded fashion and within a given volume, the number of blue (dead) cells and comparing this number to the total number of cells in this same volume.
(§3) For caspase staining, after immunostaining with anti-active caspase-3 antibody, the percentage of labelled cells was estimated by comparing the number of active caspase-3-stained cells with the total number of cells present on a given surface.

4T1 cells = experiment: Cell death/viability in cultures of 4T1 cells; format: cell-based, mouse
Procedure: as §1, §2, §3
For assessing cell viability using calcein, cells were plated in OptiMEM medium in 96-well black plates (Greiner Bio-one, Courtaboeuf, France). After 3-6 days in culture, live cells were stained with 0.5 μg/ml green calcein-acetoxymethyl ester (Molecular Probes, Eugene, Oreg.) for 40 minutes at 37° C., and counted using a flash cytometer (Trophos, Marseille, France).
We next used an in vitro assay to evaluate whether SD1 is directly capable of triggering death of tumor cells. […] Similarly, 4T1-SD1 cells, which proliferate at the same rate as 4T1-mock cells during the first 24-48 h in culture, show increased death 72 h after plating, possibly as a result of SD1 accumulation in the culture medium (FIG. 14). […] Thus, SD1 triggers cancer cell death in a PlexinD1 dependent manner.

Row | Molecule | Effect of caspase inhibitor on the death effect of PlexinD1 [1] | Effect of co-transfected semaphorin vector on PlexinD1-induced cell death [1] | also measured
1 | z-DEVD-fmk [reference compound] | blocked | – | –
2 | shRNA1: small hairpin RNA targeting mouse Sema3E, SEQ ID NO: 26 (CCGGGCTGCTGAAAGTAATCACAATCTCGAGATTGTGATTACTTTCAGCAGCTTTTTG) [reference compound] | – | – | Death of 4T1 cells on knockdown of Sema3E (4T1 cells; transfection with shRNA to mouse Sema3E): induced death
3 | z-IETD-fmk [reference compound] | not | – | –
4 | z-LEHD-fmk [reference compound] | blocked | – | –
5 | B1 | – | saved from cell death | Effect of exogenous ligand on PlexinD1-triggered cell death ([1]; Sema3E 10 to 100 ng/ml): inhibited in a dose dependent manner; Effect of exogenous Sema3E on SD1-induced death (4T1 cells; exogenous Sema3E 100 ng/ml): sufficient to rescue cells from death; Effect of exogenous Sema3E on death induced by Sema3E knockdown (4T1 cells; exogenous Sema3E 100 ng/ml, shRNA1): reversed
6 | B2 | – | no change | –
